Reference: publication PMC13354579 (EMBO Reports, 2026)

Molecular target: T1, RAD23A^UBL (human, UniProt P54725 1-84)
T1 construct: RAD23A, human, N-terminal ubiquitin-like domain, residues 1-84; The limits 1-84 are stated for the crystallised construct; also called UBL domain of RAD23A; RAD23A (1–84); source: E. coli (Rosetta2(DE3) for crystallisation), purified via GST tag and SEC
T1 sequence (looked up): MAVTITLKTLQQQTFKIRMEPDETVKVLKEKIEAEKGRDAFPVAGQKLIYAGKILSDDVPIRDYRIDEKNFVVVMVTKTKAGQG
Test: ITC; MicroCal PEAQ-ITC, 25 °C, 50 mM Tris-HCl pH 7.5, 150 mM NaCl, 250 µM TCEP; DUB in the syringe titrated into K48-linked polyUb in the cell, in other experiments the scarcest species in the cell; n = 2, mean ± SD
Details: both partners purified

Kd: 3.5 µM
B1: MINDY3^EF-hand (domain or fragment, human, UniProt Q9H8M7 297-370, looked up)
chain: ALVAPEAPSEQARRVFQTYDPEDNGFIPDSLLEDVMKALDLVSDPEYINLMKNKLDPEGLGIILLGPFLQEFFP
notes: MINDY3, human, EF-hand domain, residues 297-370; The limits 297-370 are stated for the crystallised construct; also called EF-hand domain of MINDY3; MINDY3 (297–370); source: E. coli (Rosetta2(DE3) for crystallisation), purified via GST tag and SEC
